Kd data for one substance are collected here from publication PMC8654305.

The target of the test is recombinant N-terminal His6-tagged GlgB (Synechocystis sp. PCC 6803) (UniProt P52981). The experiment in a line: MST.

pKd: −log10 of the molar value.

Chain of recombinant N-terminal His6-tagged GlgB (Synechocystis sp. PCC 6803) (P52981 whole entry): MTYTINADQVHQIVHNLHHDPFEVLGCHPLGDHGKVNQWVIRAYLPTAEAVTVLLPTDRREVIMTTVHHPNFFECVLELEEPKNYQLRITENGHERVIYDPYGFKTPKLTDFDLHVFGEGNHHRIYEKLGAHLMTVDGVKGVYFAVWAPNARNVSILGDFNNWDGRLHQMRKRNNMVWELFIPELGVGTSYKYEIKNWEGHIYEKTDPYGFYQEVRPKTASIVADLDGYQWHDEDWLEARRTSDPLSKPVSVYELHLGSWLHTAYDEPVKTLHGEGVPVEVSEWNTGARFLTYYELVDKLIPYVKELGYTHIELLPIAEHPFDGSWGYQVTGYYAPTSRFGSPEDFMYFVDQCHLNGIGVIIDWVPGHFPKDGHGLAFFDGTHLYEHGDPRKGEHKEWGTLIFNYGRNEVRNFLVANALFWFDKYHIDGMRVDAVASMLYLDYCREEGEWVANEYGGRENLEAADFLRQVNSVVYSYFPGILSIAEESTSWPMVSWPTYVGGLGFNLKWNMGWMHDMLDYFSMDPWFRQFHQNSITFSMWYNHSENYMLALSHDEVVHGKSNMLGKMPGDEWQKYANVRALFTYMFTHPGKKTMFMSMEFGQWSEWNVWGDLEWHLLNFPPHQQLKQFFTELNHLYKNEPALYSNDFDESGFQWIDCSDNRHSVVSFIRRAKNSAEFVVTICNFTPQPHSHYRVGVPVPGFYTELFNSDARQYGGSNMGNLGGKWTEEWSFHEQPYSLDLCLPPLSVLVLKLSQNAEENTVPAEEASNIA

Broadly, the pKd is the negative decadic logarithm of the Kd, by convention in mol/L. Turning to “recombinant C-terminal StrepII-tagged ScSbtB (SbtB from Synechocystis sp. PCC 6803) (from UniProt P73954 1-110) (natural protein)”, the pKd is 6.66.
